These results are taken from IntAct's records for PubMed 21946559.

First the molecules themselves.
B1: Leucine-rich repeat-containing protein 4 (Homo sapiens), Q9HBW1 (parent)
chain: MKLLWQVTVHHHTWNAILLPFVYLTAQVWILCAAIAAAASAGPQNCPSVCSCSNQFSKVVCTRRGLSEVPQGIPSNTRYLNLMENNIQMIQADTFRHLHHLEVLQLGRNSIRQIEVGAFNGLASLNTLELFDNWLTVIPSGAFEYLSKLRELWLRNNPIESIPSYAFNRVPSLMRLDLGELKKLEYISEGAFEGLFNLKYLNLGMCNIKDMPNLTPLVGLEELEMSGNHFPEIRPGSFHGLSSLKKLWVMNSQVSLIERNAFDGLASLVELNLAHNNLSSLPHDLFTPLRYLVELHLHHNPWNCDCDILWLAWWLREYIPTNSTCCGRCHAPMHMRGRYLVEVDQASFQCSAPFIMDAPRDLNISEGRMAELKCRTPPMSSVKWLLPNGTVLSHASRHPRISVLNDGTLNFSHVLLSDTGVYTCMVTNVAGNSNASAYLNVSTAELNTSNYSFFTTVTVETTEISPEDTTRKYKPVPTTSTGYQPAYTTSTTVLIQTTRVPKQVAVPATDTTDKMQTSLDEVMKTTKIIIGCFVAVTLLAAAMLIVFYKLRKRHQQRSTVTAARTVEIIQVDEDIPAATSAAATAAPSGVSGEGAVVLPTIHDHINYNTYKPAHGAHWTENSLGNSLHPTVTTISEPYIIQTHTKDKVQETQI
partner: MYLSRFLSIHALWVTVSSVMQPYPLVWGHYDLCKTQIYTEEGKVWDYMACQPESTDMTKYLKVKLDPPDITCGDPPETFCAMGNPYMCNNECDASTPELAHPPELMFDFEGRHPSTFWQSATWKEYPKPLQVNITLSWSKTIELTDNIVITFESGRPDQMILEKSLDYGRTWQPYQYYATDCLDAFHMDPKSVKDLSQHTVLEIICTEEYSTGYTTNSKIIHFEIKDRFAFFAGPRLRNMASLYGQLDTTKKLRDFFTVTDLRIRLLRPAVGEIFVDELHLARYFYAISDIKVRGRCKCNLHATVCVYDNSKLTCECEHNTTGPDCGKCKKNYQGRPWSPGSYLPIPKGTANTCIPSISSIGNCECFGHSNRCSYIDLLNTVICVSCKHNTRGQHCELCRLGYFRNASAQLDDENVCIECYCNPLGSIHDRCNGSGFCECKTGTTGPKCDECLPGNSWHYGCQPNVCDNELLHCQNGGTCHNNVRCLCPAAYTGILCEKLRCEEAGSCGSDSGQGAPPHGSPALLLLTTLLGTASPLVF
B2: Netrin-G1 (Homo sapiens), Q9Y2I2 (parent)
chain: B1 partner
partner: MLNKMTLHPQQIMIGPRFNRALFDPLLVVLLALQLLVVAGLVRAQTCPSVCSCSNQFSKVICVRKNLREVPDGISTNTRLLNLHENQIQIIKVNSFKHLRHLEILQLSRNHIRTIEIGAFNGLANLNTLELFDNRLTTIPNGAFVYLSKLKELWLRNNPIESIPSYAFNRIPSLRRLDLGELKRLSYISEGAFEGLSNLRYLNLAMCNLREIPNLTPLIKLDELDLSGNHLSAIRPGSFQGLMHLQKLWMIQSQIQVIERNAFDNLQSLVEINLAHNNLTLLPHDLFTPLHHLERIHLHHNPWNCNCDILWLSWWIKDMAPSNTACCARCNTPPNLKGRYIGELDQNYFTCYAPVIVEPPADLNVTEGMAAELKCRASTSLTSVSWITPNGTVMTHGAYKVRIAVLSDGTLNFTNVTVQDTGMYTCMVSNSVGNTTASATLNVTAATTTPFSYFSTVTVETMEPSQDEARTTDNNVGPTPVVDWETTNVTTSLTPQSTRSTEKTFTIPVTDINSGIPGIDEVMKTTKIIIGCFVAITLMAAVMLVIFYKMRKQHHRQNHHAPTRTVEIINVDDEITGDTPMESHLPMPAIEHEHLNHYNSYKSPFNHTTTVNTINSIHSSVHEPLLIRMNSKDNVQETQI
B3: Leucine-rich repeat-containing protein 4C (Homo sapiens), Q9HCJ2 (parent)
chain: B2 partner
partner: B1 partner

The variants in the first test derive from B1. Conditions: with ntng1_human NTNG1, Q9Y2I2.
In the case of G204T, the “effect of a mutation on the interaction” value is given as “disrupting interaction”.

The variants in the next test derive from B2. The following applies: with lrc4c_human LRRC4C, Q9HCJ2.
With MYLSRFLSIHALWVTVSSVMQPYPLVWGHYDLCKTQIYTEEGKVWDYMACQPESTDMTKYLKVKLDPPDITCGDPPETFCAMGNAYMCNNECDASTPELAHPPELMFDFEGRHPSTFWQSATWKEYPKPLQVNITLSWSKTIELTDNIVITFESGRPDQMILEKSLDYGRTWQPYQYYATDCLDAFHMDPKSVKDLSQHTVLEIICTEEYSTGYTTNSKIIHFEIKDRFAFFAGPRLRNMASLYGQLDTTKKLRDFFTVTDLRIRLLRPAVGEIFVDELHLARYFYAISDIKVRGRCKCNLHATVCVYDNSKLTCECEHNTTGPDCGKCKKNYQGRPWSPGSYLPIPKGTANTCIPSISSIGNCECFGHSNRCSYIDLLNTVICVSCKHNTRGQHCELCRLGYFRNASAQLDDENVCIECYCNPLGSIHDRCNGSGFCECKTGTTGPKCDECLPGNSWHYGCQPNVCDNELLHCQNGGTCHNNVRCLCPAAYTGILCEKLRCEEAGSCGSDSGQGAPPHGSPALLLLTTLLGTASPLVF [P85A], the “effect of a mutation on the interaction” value is “disrupting interaction”.
As for MYLSRFLSIHALWVTVSSVMQPYPLVWGHYDLCKTQIYTEEGKVWDYMACQPESTDMTKYLKVKLDPPDITCGDPPETFCAMGNPTMCNNECDASTPELAHPPELMFDFEGRHPSTFWQSATWKEYPKPLQVNITLSWSKTIELTDNIVITFESGRPDQMILEKSLDYGRTWQPYQYYATDCLDAFHMDPKSVKDLSQHTVLEIICTEEYSTGYTTNSKIIHFEIKDRFAFFAGPRLRNMASLYGQLDTTKKLRDFFTVTDLRIRLLRPAVGEIFVDELHLARYFYAISDIKVRGRCKCNLHATVCVYDNSKLTCECEHNTTGPDCGKCKKNYQGRPWSPGSYLPIPKGTANTCIPSISSIGNCECFGHSNRCSYIDLLNTVICVSCKHNTRGQHCELCRLGYFRNASAQLDDENVCIECYCNPLGSIHDRCNGSGFCECKTGTTGPKCDECLPGNSWHYGCQPNVCDNELLHCQNGGTCHNNVRCLCPAAYTGILCEKLRCEEAGSCGSDSGQGAPPHGSPALLLLTTLLGTASPLVF [Y86T], the “effect of a mutation on the interaction” value is recorded as “disrupting interaction”.

In the next test the parent is B3. Conditions: with ntng1_human NTNG1, Q9Y2I2.
Turning to A205T, the “effect of a mutation on the interaction” value is listed as “disrupting interaction”.
